Laboratory results published in US20240384250A1, “FIBROBLAST GROWTH FACTOR 23 MODULATING COMPOUNDS” (THE UAB RESEARCH FOUNDATION, priority 2021, published 2024).
Entries after “also recorded” stand apart in the source; their conditions may differ.

B1: sKL: recombinant soluble α-klotho ectodomain, mouse aa 35-982 and human aa 34-981, FLAG- or Strep/His-tagged, purified from HEK293 cells (protein)
chain: EPGDGAQTWARFSRPPAPEAAGLFQGTFPDGFLWAVGSAAYQTEGGWQQHGKGASIWDTFTHHPLAPPGDSRNASLPLGAPSPLQPATGDVASDSYNNVFRDTEALRELGVTHYRFSISWARVLPNGSAGVPNREGLRYYRRLLERLRELGVQPVVTLYHWDLPQRLQDAYGGWANRALADHFRDYAELCFRHFGGQVKYWITIDNPYVVAWHGYATGRLAPGIRGSPRLGYLVAHNLLLAHAKVWHLYNTSFRPTQGGQVSIALSSHWINPRRMTDHSIKECQKSLDFVLGWFAKPVFIDGDYPESMKNNLSSILPDFTESEKKFIKGTADFFALCFGPTLSFQLLDPHMKFRQLESPNLRQLLSWIDLEFNHPQIFIVENGWFVSGTTKRDDAKYMYYLKKFIMETLKAIKLDGVDVIGYTAWSLMDGFEWHRGYSIRRGLFYVDFLSQDKMLLPKSSALFYQKLIEKNGFPPLPENQPLEGTFPCDFAWGVVDNYIQVDTTLSQFTDLNVYLWDVHHSKRLIKVDGVVTKKRKSYCVDFAAIQPQIALLQEMHVTHFRFSLDWALILPLGNQSQVNHTILQYYRCMASELVRVNITPVVALWQPMAPNQGLPRLLARQGAWENPYTALAFAEYARLCFQELGHHVKLWITMNEPYTRNMTYSAGHNLLKAHALAWHVYNEKFRHAQNGKISIALQADWIEPACPFSQKDKEVAERVLEFDIGWLAEPIFGSGDYPWVMRDWLNQRNNFLLPYFTEDEKKLIQGTFDFLALSHYTTILVDSEKEDPIKYNDYLEVQEMTDITWLNSPSQVAVVPWGLRKVLNWLKFKYGDLPMYIISNGIDDGLHAEDDQLRVYYMQNYINEALKAHILDGINLCGYFAYSFNDRTAPRFGLYRYAADQFEPKASMKHYRKIIDSNGFPGPETLERFCPEEFTVCTECSFFHTRKS
modifications: left off: small tags and cut ends
notes: recombinant soluble α-klotho ectodomain, mouse aa 35-982 and human aa 34-981, FLAG- or Strep/His-tagged, purified from HEK293 cells
B2: FGF23: recombinant fibroblast growth factor 23 protein from R&D Systems (protein)
chain: YPDTSPLLGSNWGSLTHLYTATARTSYHLQIHRDGHVDGTPHQTIYSALMITSEDAGSVVITGAMTRRFLCMDLHGNIFGSLHFSPENCKFRQWTLENGYDVYLSQKHHYLVSLGRAKRIFQPGTNPPPFSQFLARRNEVPLLHFYTVRPRRHTRSAEDPPERDPLNVLKPRPRATPVPVSCSRELPSAEEGGPAASDPLGVLRRGRGDARGGAGGADRCRPFPRFV

What was measured:
FGF23 binding to FGFR4 = molecular target: T1, FGF23 binding to FGFR4 (Homo sapiens, UniProt P22455+Q9GZV9); assay: Plate-based binding, FGF23 coated, then sKL, heparin or PBS, then Fc-FGFR; details: with sKL, with heparin 0.4 USP, or alone
T1 construct: Fc-coupled FGFR ectodomains were immobilized on protein A/G beads; purchased R&D Systems 2604FG025/CF or 2629FG025/CF; 685FR050
T1 sequence (Q9GZV9 25-251): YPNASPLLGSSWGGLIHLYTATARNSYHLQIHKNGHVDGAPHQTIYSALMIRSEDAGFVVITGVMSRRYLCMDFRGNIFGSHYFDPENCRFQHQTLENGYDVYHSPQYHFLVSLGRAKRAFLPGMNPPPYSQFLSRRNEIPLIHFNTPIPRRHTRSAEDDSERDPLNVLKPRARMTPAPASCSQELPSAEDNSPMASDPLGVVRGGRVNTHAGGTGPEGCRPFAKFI
T1 sequence (P22455 22-369 limits assumed): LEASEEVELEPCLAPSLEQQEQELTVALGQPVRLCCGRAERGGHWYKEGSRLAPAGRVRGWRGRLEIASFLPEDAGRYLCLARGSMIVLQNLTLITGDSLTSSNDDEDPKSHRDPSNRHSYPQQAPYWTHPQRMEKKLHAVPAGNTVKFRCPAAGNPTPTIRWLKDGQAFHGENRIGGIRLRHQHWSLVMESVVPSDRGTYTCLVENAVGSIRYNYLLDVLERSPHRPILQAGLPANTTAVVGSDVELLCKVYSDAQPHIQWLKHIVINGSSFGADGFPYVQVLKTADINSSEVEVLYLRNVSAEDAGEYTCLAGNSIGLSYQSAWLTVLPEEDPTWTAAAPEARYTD
Description: Proteins were coated on 96-well plates (MaxiSorp; 439454, Thermo Fisher Scientific), and proteins were added to wells in 100 μl of enzyme-linked immunosorbent assay (ELISA) coating buffer (E107, Bethyl Laboratories) with a lid placed overtop and incubated at 4° C. overnight. Plates were washed 5× with 350 μl of assay buffer (50 mM Tris [pH 7.4], 200 mM NaCl, 0.01% Tween 20) on a 50 TS microplate washer (BioTek). Plates were blocked for 1 hour in 200 μl of assay buffer with 0.5% BSA. Plates were washed as before, and proteins were incubated on plates in 100 μl of assay buffer with 0.5% BSA. Proteins or heparin was incubated in orders described in the respective figure legends. Assays using FLAG-tag-based detection were incubated with anti-FLAG coupled to HRP at 1:20,000, and assays using Fc detection were incubated with anti-human Fc coupled to HRP at 1:10,000. Plates were washed as above, and 100 μl of 3,3′,5,5′-tetramethylbenzidine (TMB) substrate (E102, Bethyl Laboratories) was added for 15 to 20 minutes until positive wells developed a dark blue color. Reactions were stopped with ELISA stop solution (E115, Bethyl Laboratories) and analyzed using the Synergy HI plate reader (BioTek) at 450 nm wavelength. […] As a control to remove background absorbance values, wells were coated with an equal amount of BSA to match the amount of protein coated in experimental wells and treated the same as experimental wells. To study the effects of sKL on the binding between paracrine FGFs and FGFRs, plates were run as above except coated with paracrine FGFs. Fc-FGFR1 was preincubated with sKL or vehicle for 60 minutes, and then the combination was added to wells and the assay was run as before.

[1] = tested on: neonatal rat ventricular myocytes; assay: Hypertrophic growth of isolated neonatal rat ventricular myocytes (cell area); type: cell-based
Description: Neonatal rat ventricular myocytes (NRVMs) were isolated using a kit according to the manufacturer's protocol (LK003300, Worthington Biochemical Corporation), as done previously.^13,16,17 Briefly, hearts from 1- to 3-day-old Sprague Dawley rats (Envigo) were harvested and minced in calcium- and magnesium-free Hanks balanced salt solution and the tissue was digested with 50 μg/ml of trypsin at 4° C. for 20 to 24 hours. Soybean trypsin inhibitor in Hanks balanced salt solution was added, and the tissue was further digested with collagenase (in Leibovitz L-15 medium) under slow rotation (0.14 g) at 37° C. for 45 minutes. Cells were broken up by triturating the suspension 20× with a standard 10-ml plastic serological pipette. Cells were then filtered through a cell strainer (70 μm, BD Falcon). Cells were incubated at room temperature for 20 minutes and spun at 100 g for 5 minutes. The cell pellet was resuspended in plating medium (DMEM Base [10013CV, Corning], 17% M199 [12350039, Gibco], 15% FBS [26140079, Gibco], I× Pen/Strep [15140122, Gibco]). For cell tracings, NRVMs were grown in 24-well plates on glass coverslips (CLS1760012, Chemglass). Slips were precoated with laminin (23017015, Invitrogen) at 10 μg/ml for 1 hour at 37° C. dissolved in PBS. Laminin was aspirated, and cells and medium were added. Cells were counted by a hemocytometer and plated at 4×10^5 cells per well. […] After 48 hours, maintenance medium was replaced, and after another 48 hours, cells were ready for treatment, giving a total of 72 hours of plating medium and 96 hours of maintenance medium before treatment. […]
The medium was aspirated, and cultured NRVMs were fixed in 2% paraformaldehyde (P-6148, Sigma-Aldrich) and 4% sucrose dissolved in PBS for 5 minutes followed by permeabilization with 1% Triton X-100 dissolved in PBS for 10 minutes. […] The cross-sectional area of myocytes was measured on the basis of α-actinin-positive staining using ImageJ software (v1.53, National Institutes of Health). […]

Molecule | binding of coated FGF23 to Fc-FGFR4 (FGF23 binding to FGFR4) | FGF23-induced hypertrophy (increase in cell area) ([1]; cotreatment with FGF23 25 ng/ml, 48 hours, sKL 100 ng/ml, anti-FGF23 1 μg/ml) | NRVM area, treatment by itself ([1]; without FGF23, 48 hours) | cell area ([1]; FGF23 alone, 48 hours)
B1 | highest FGF23-sKL affinities; also recorded: increased; also recorded: the strongest | FGF23 did not induce hypertrophy; also recorded: blocked this effect | no effect | 
B2 | low affinity; also recorded: weak affinity |  |  | induced hypertrophic growth; also recorded: increase in cell area; also recorded: stepwise elevation in the cell area
